Data published in EP0813419B1 (YEDA RESEARCH & DEVELOPMENT COMPANY, LTD., dated 2005).

T1: intracellular domain of the human p75 TNF receptor (human, UniProt P20333 288-461, limits assumed)
T1 construct: domain: intracellular domain; construct not described; also called p75IC
T1 sequence (looked up): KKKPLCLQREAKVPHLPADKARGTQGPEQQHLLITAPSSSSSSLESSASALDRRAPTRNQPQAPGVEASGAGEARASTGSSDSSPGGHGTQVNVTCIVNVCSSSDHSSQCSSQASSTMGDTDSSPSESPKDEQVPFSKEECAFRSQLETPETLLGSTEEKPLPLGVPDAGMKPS

B1: 'death domain' (DD) of human TRADD (residues 195-312) (other, not shown: large carriers)
chain: PPPPAQTFLFQGQPVVNRPLSLKDQQTFARSVGLKWRKVGRSLQRGCRALRDPALDSLAYEYEREGLYEQAFQLLRRFVQAEGRRATLQRLVEALEENELTSLAEDLLGLTDPNGGLA
notes: Gal4 hybrid construct in yeast; also called TRADD DD
B2: 'death domain' (DD) of human MORT-1 (residues 92-208) (other, not shown: large carriers)
chain: PGEEDLCAAFNVICDNVGKDWRRLARQLKVSDTKIDSIEDRYPRNLTERVRESLRIWKNTEKENATVAHLVGALRSCQMNLVADLVQEVQQARDLQNRSGAMSPMSWNSDASTSEAS
notes: Gal4 hybrid construct in yeast; also called HF1; MORT-1 DD

Assays:
[1] = target: T1, intracellular domain of the human p75 …; experiment: yeast two-hybrid specificity test (not shown)
[2] = target: the molecule itself; experiment: yeast two-hybrid (Gal4 DBD and AD fusions, SFY526), beta-galactosidase filter assay; self-association
[3] = target: B1; experiment: yeast two-hybrid specificity test (not shown)
[4] = target: B2; experiment: yeast two-hybrid specificity test (not shown)
[5] = target: B1; experiment: yeast two-hybrid (Gal4 DBD and AD fusions, SFY526), beta-galactosidase filter assay

| Binder | binding result [1] | binding result [2] | binding result [3] | binding result [4] | binding result [5] |
| --- | --- | --- | --- | --- | --- |
| B1 | no binding | binds | – | – | – |
| DD of the rat low-affinity NGF receptor (receptor, UniProt P07174 340-425, looked up, domain: DD; Two-hybrid control; construct not described) LPLTKREEVEKLLNGDTWRHLAGELGYQPEHIDSFTHEACPVRALLASWGAQDSATLDALLAALRRIQRADIVESLCSESTATSPV | – | – | no binding | no binding | – |
| B2 | no binding | no binding | – | – | binds |
